Earlier results in article PMC10966181.

Target: Tyr159 (UniProt position 159, ISIHVYGANIG)
Assay: kinetics
Settings: Catalytically active Fe(II)-MDO turning over the substrate 3MPA

Substance | pKa
3-mercaptopropionate dioxygenase (MDO) H157N variant (Azotobacter vinelandii; H157N) | 9.9 ± 0.1
3-mercaptopropionate dioxygenase (MDO, AvMDO) (Azotobacter vinelandii) | 9.2 ± 0.1
